From PMC11535546

Biological target: VASP (UniProt P50552)
Experiment: co-immunoprecipitation, immunoblot
Conditions: reference: wild-type Zyxin; sites S142,S143

binding against the reference: lost
Substance: Zyxin (from UniProt Q15942) Zyxin S142A/S143A
